Experiments:
Assay in all cases: cell-based or functional assay
[1] = biological target: HIV-1 Env of pseudovirus Ce1086_B2 (HIV-1)
[2] = biological target: HIV-1 Env of pseudovirus REJO4541.67 (HIV-1)
[3] = biological target: HIV-1 Env of pseudovirus 249M B10 (HIV-1)
[4] = biological target: HIV-1 Env of pseudovirus T250-4 (HIV-1)
[5] = biological target: HIV-1 Env of pseudovirus SC05_8C11_2344 (HIV-1)
[6] = biological target: HIV-1 Env of pseudovirus BJOX025000.01.1 (HIV-1)
[7] = biological target: HIV-1 Env of pseudovirus ZM233M.PB6 (HIV-1)
[8] = biological target: HIV-1 Env of pseudovirus Q842.d12 (HIV-1)
[9] = biological target: HIV-1 Env of pseudovirus 1056_10_TA11_1826 (HIV-1)
[10] = biological target: HIV-1 Env of pseudovirus Ce2010_F5 (HIV-1)
[11] = biological target: HIV-1 Env of pseudovirus 0815.v3.c3 (HIV-1)
[12] = biological target: HIV-1 Env of pseudovirus BJOX009000.02.4 (HIV-1)
[13] = biological target: HIV-1 Env of pseudovirus ZM197M.PB7 (HIV-1)
[14] = biological target: HIV-1 Env of pseudovirus R1166.c01 (HIV-1)
[15] = biological target: HIV-1 Env of pseudovirus 62357_14_D3_4589 (HIV-1)
[16] = biological target: HIV-1 Env of pseudovirus Ce1176_A3 (HIV-1)
[17] = biological target: HIV-1 Env of pseudovirus ZM53M.PB12 (HIV-1)
[18] = biological target: HIV-1 Env of pseudovirus SC422661.8 (HIV-1)
[19] = biological target: HIV-1 Env of pseudovirus 1012_11_TC21_3257 (HIV-1)
[20] = biological target: HIV-1 Env of pseudovirus CNE58 (HIV-1)
[21] = biological target: HIV-1 Env of pseudovirus TRJO4551.58 (HIV-1)
[22] = biological target: HIV-1 Env of pseudovirus HIV-0013095-2.11 (HIV-1)
[23] = biological target: HIV-1 Env of pseudovirus 6240_08_TA5_4622 (HIV-1)
[24] = biological target: HIV-1 Env of pseudovirus Du156.12 (HIV-1)
[25] = biological target: HIV-1 Env of pseudovirus WITO4160.33 (HIV-1)
[26] = biological target: HIV-1 Env of pseudovirus Q23.17 (HIV-1)
[27] = biological target: HIV-1 Env of pseudovirus Du172.17 (HIV-1)
[28] = biological target: HIV-1 Env of pseudovirus C2101.c01 (HIV-1)
[29] = biological target: HIV-1 Env of pseudovirus WEAU_d15_410_787 (HIV-1)
[30] = biological target: HIV-1 Env of pseudovirus 3301.v1.c24 (HIV-1)
[31] = biological target: HIV-1 Env of pseudovirus BJOX015000.11.5 (HIV-1)
[32] = biological target: HIV-1 Env of pseudovirus ZM247v1(Rev-) (HIV-1)
[33] = biological target: HIV-1 Env of pseudovirus 7030102001E5(Rev-) (HIV-1)
[34] = biological target: HIV-1 Env of pseudovirus CNE53 (HIV-1)
[35] = biological target: HIV-1 Env of pseudovirus 191821_E6_1 (HIV-1)
[36] = biological target: HIV-1 Env of pseudovirus P1981_C5_3 (HIV-1)
[37] = biological target: HIV-1 Env of pseudovirus 3817.v2.c59 (HIV-1)
[38] = biological target: HIV-1 Env of pseudovirus 6535.3 (HIV-1)
[39] = biological target: HIV-1 Env of pseudovirus Q259.d2.17 (HIV-1)

B1: 10-1074 (antibody, V domains shown)
VH: QVQLQESGPGLVKPSETLSVTCSVSGDSMNNYYWTWIRQSPGKGLEWIGYISDRESATYNPSLNSRVVISRDTSKNQLSLKLNSVTPADTAVYYCATARRGQRIYGVVSFGEFFYYYSMDVWGKGTTVTVSS
VL: SYVRPLSVALGETARISCGRQALGSRAVQWYQHRPGQAPILLIYNNQDRPSGIPERFSGTPDINFGTRATLTISGVEAGDEADYYCHMWDSRSGFSWSFGGATRLTVL
In the case of B1, the IC50 in TZM-bl assay [1] is reported as over 10 µg/mL, the IC80 in TZM-bl assay [1] is reported as over 10 µg/mL and the IC50 in TZM-bl assay [2] is reported as over 10 µg/mL. The IC80 in TZM-bl assay [2] was over 10 µg/mL, the IC50 in TZM-bl assay [3] was over 10 µg/mL and the IC80 in TZM-bl assay [3] was over 10 µg/mL. It also gave an IC50 in TZM-bl assay [4] of 2 ng/mL, an IC80 in TZM-bl assay [4] of 5 ng/mL and an IC50 in TZM-bl assay [5] of 0.017 µg/mL. For the same binder, the IC80 in TZM-bl assay [5] was 0.048 µg/mL, the IC50 in TZM-bl assay [6] was over 10 µg/mL and the IC80 in TZM-bl assay [6] was over 10 µg/mL. The IC50 in TZM-bl assay [7] was 0.058 µg/mL, the IC80 in TZM-bl assay [7] was 0.371 µg/mL and the IC50 in TZM-bl assay [8] was over 10 µg/mL. The IC80 in TZM-bl assay [8] was over 10 µg/mL, the IC50 in TZM-bl assay [9] was 0.038 µg/mL and the IC80 in TZM-bl assay [9] was 0.168 µg/mL. The IC50 in TZM-bl assay [10] was over 10 µg/mL, the IC80 in TZM-bl assay [10] was over 10 µg/mL and the IC50 in TZM-bl assay [11] was 0.043 µg/mL. For the same binder, the IC80 in TZM-bl assay [11] was 0.197 µg/mL, the IC50 in TZM-bl assay [12] was over 10 µg/mL and the IC80 in TZM-bl assay [12] was over 10 µg/mL. For the same binder, the IC50 in TZM-bl assay [13] was over 10 µg/mL, the IC80 in TZM-bl assay [13] was over 10 µg/mL and the IC50 in TZM-bl assay [14] was over 10 µg/mL. The IC80 in TZM-bl assay [14] was over 10 µg/mL, the IC50 in TZM-bl assay [15] was over 10 µg/mL and the IC80 in TZM-bl assay [15] was over 10 µg/mL. It also gave an IC50 in TZM-bl assay [16] of 0.022 µg/mL, an IC80 in TZM-bl assay [16] of 0.07 µg/mL and an IC50 in TZM-bl assay [17] of over 10 µg/mL. The IC80 in TZM-bl assay [17] was over 10 µg/mL, the IC50 in TZM-bl assay [18] was 0.058 µg/mL and the IC80 in TZM-bl assay [18] was 0.368 µg/mL. For the same binder, the IC50 in TZM-bl assay [19] was 0.011 µg/mL, the IC80 in TZM-bl assay [19] was 0.047 µg/mL and the IC50 in TZM-bl assay [20] was 0.165 µg/mL. The IC80 in TZM-bl assay [20] was 0.476 µg/mL, the IC50 in TZM-bl assay [21] was 0.057 µg/mL and the IC80 in TZM-bl assay [21] was 0.218 µg/mL. It also gave an IC50 in TZM-bl assay [22] of over 10 µg/mL, an IC80 in TZM-bl assay [22] of over 10 µg/mL and an IC50 in TZM-bl assay [23] of 0.038 µg/mL. For the same binder, the IC80 in TZM-bl assay [23] was 0.131 µg/mL, the IC50 in TZM-bl assay [24] was 0.01 µg/mL and the IC80 in TZM-bl assay [24] was 0.036 µg/mL. The IC50 in TZM-bl assay [25] was 0.111 µg/mL, the IC80 in TZM-bl assay [25] was 0.828 µg/mL and the IC50 in TZM-bl assay [26] was 5 ng/mL. It also gave an IC80 in TZM-bl assay [26] of 0.015 µg/mL, an IC50 in TZM-bl assay [27] of 0.049 µg/mL and an IC80 in TZM-bl assay [27] of 0.194 µg/mL. The IC50 in TZM-bl assay [28] was over 10 µg/mL, the IC80 in TZM-bl assay [28] was over 10 µg/mL and the IC50 in TZM-bl assay [29] was 0.031 µg/mL. The IC80 in TZM-bl assay [29] was 0.112 µg/mL, the IC50 in TZM-bl assay [30] was 0.018 µg/mL and the IC80 in TZM-bl assay [30] was 0.049 µg/mL. The IC50 in TZM-bl assay [31] was over 10 µg/mL, the IC80 in TZM-bl assay [31] was over 10 µg/mL and the IC50 in TZM-bl assay [32] was 0.042 µg/mL. For the same binder, the IC80 in TZM-bl assay [32] was 0.146 µg/mL, the IC50 in TZM-bl assay [33] was 9 ng/mL and the IC80 in TZM-bl assay [33] was 0.019 µg/mL. For the same binder, the IC50 in TZM-bl assay [34] was 0.013 µg/mL, the IC80 in TZM-bl assay [34] was 0.058 µg/mL and the IC50 in TZM-bl assay [35] was over 10 µg/mL. For the same binder, the IC80 in TZM-bl assay [35] was over 10 µg/mL, the IC50 in TZM-bl assay [36] was 4 ng/mL and the IC80 in TZM-bl assay [36] was 0.013 µg/mL. The IC50 in TZM-bl assay [37] was 0.706 µg/mL, the IC80 in TZM-bl assay [37] was 4.49 µg/mL and the IC50 in TZM-bl assay [38] was 7 ng/mL. For the same binder, the IC80 in TZM-bl assay [38] was 0.022 µg/mL, the IC50 in TZM-bl assay [39] was over 10 µg/mL and the IC80 in TZM-bl assay [39] was over 10 µg/mL.

— patent US11325966
